# According to patent US20180201658A1 (MIT, published 2018):
# T1: human Bfl-1 (human, UniProt Q16548 1-151, limits assumed)
# T1 construct: Also used for the Bfl-1 of Pfeiffer cells in the functional rows
# T1 sequence (looked up): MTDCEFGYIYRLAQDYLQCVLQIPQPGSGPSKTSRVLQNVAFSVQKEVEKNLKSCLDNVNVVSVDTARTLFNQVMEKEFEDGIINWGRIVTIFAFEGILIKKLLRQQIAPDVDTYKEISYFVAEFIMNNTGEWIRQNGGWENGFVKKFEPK
# T2: human Bcl-w (human, UniProt Q92843 1-164, limits assumed)
# T2 sequence (looked up): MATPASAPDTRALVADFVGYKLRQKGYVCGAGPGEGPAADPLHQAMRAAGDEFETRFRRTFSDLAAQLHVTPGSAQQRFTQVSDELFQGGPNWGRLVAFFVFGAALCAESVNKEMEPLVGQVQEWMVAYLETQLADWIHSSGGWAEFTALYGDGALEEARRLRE
# What was measured:
# murine Mcl-1 = murine Mcl-1 (murine, UniProt P97287 1-331, limits assumed); experiment: cell-based or functional assay
# Chain of murine Mcl-1 (P97287 whole entry): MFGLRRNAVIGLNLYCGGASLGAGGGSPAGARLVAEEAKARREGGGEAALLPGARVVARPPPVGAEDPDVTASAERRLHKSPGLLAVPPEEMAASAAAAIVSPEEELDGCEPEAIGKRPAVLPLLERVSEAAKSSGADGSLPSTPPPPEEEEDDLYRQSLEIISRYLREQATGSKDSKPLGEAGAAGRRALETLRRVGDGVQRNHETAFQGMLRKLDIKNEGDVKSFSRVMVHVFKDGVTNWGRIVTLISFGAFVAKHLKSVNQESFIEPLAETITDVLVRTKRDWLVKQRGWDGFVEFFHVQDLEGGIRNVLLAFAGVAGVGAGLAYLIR
# human Bcl-2 [1] = target: T3, human Bcl-2 (human, UniProt P10415 1-217, limits assumed); experiment: cell-based or functional assay
# T3 sequence (P10415 1-217 limits assumed): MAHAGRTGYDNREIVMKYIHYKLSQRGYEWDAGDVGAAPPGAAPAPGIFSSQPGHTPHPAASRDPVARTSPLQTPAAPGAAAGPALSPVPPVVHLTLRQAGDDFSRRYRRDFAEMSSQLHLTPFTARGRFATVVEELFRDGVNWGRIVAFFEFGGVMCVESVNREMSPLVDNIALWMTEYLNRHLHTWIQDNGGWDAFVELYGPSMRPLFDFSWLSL
# human Bcl-xL [2] = target: T4, human Bcl-xL (human, UniProt Q07817 1-209); experiment: cell-based or functional assay
# T4 sequence (Q07817 1-209): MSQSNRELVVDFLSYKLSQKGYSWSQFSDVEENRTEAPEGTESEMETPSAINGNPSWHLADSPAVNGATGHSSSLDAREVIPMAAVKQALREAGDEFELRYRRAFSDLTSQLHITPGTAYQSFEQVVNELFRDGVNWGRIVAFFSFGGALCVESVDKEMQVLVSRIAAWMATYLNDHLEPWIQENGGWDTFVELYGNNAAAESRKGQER
# human Bcl-2 [3] = target: T3, human Bcl-2; experiment: fluorescence anisotropy (FIG. 1)
# human Bcl-xL [4] = target: T4, human Bcl-xL; experiment: fluorescence anisotropy (FIG. 1)
# human Bfl-1 = target: T1, human Bfl-1; experiment: fluorescence anisotropy (FIG. 1)
# human Bcl-w = target: T2, human Bcl-w; experiment: fluorescence anisotropy (FIG. 1)
binder,measurement,setting,value
"RPEIWMTQGLRRLGDEINAYYAR [MS1, unlabeled]","EC50 of mitochondrial depolarization, BH3 profiling, Mcl-1/Myc 2640 cells",murine Mcl-1,0.07 µM
RPEIWLTQHLQRLGDEINAYYAR [MS3 as used in BH3 profiling],"EC50 of mitochondrial depolarization, BH3 profiling, Bcl-2-dependent line",human Bcl-2 [1],> 100 µM
same,"EC50 of mitochondrial depolarization, BH3 profiling, MDA-MB-231 cells",human Bcl-xL [2],> 100 µM
same,"EC50 of mitochondrial depolarization, BH3 profiling, Mcl-1/Myc 2640 cells",murine Mcl-1,0.86 µM
"AELPPEFAAQLRKIGDKVYC [NoxaA BH3 peptide from murine Noxa, unlabeled]","EC50 of mitochondrial depolarization, BH3 profiling, Bcl-2-dependent line",human Bcl-2 [1],> 100 µM
same,"EC50 of mitochondrial depolarization, BH3 profiling, MDA-MB-231 cells",human Bcl-xL [2],> 100 µM
RPEIWITQELRRIGDEFNAYYAR (Bim BH3 point mutant) [Bim_A2eT],fold reduction in binding relative to Bim,human Bcl-2 [3],> 20 fold
same,fold reduction in binding relative to Bim,human Bcl-xL [4],6 fold
same,fold reduction in binding relative to Bim,human Bfl-1,> 20 fold
same,fold reduction in binding relative to Bim,human Bcl-w,> 20 fold
RPEIWITQELRRIGDEINAYYAR [Bim_A2eT_F4aI],fold decrease in binding relative to Bim_A2eT,human Bcl-2 [3],3 fold
same,fold decrease in binding relative to Bim_A2eT,human Bcl-xL [4],6 fold
RPEIWMTQELRRIGDEFNAYYAR [Bim_A2eT_I2dM],fold reduction in binding relative to Bim_A2eT,human Bcl-2 [3],~4 fold
same,fold reduction in binding relative to Bim_A2eT,human Bcl-xL [4],~4 fold
same,fold reduction in binding relative to Bim_A2eT,human Bfl-1,~4 fold
same,fold reduction in binding relative to Bim_A2eT,human Bcl-w,~4 fold
RPEIWITQELRRLGDEFNAYYAR [Bim_A2eT_I3dL],fold reduction in binding relative to Bim_A2eT,human Bfl-1,4 fold
